Consider six molecules from patent US7256256B1, “CDK4 binding peptide” (United States of America as represented by the Secretary, …, priority 1999, dated 2007).

One experiment deals with T1, CDK4 and cyclin D1 (Mus musculus, UniProt P30285).
T1 construct: made in house; host or cells: Sf9 insect cells coinfected with baculovirus stocks (from C. J. Sherr)
Nature of the experiment: In vitro CDK4 kinase assay on GST-RB, Western blot with phosphoserine 780/795 antibodies. It is filed as biochemical. To be noted: proteins added in two-fold increments from 75 ng to 300 ng; phosphoserine 780 antibody (identical with 795). The method, then:
Active CDK4 was produced in Sf9 cells coinfected with baculovirus stocks encoding CDK4 and cyclin D1 (from C. J. Sherr).
The kinase assay was performed essentially as described by Kato, et al., Genes Dev, (1993), 7(3):331–42. The CDK4-specific kinase inhibitor p16 (from D. Beach, [as described in Serrano, et al., Nature, (1993), 366(6456): 704–7]) was used as a GST-p16 fusion added to the kinase reaction. The GST-RB fusion (767–928) was used as a kinase target as previously described Kato, et al., Genes Dev, (1993), 7(3):331–42.
To test for kinase inhibition, the various proteins and protein domains were added to the reaction in two-fold increments from 75 ng to 300 ng. […] For the GST constructs, total protein concentration was kept constant in the kinase reaction by adding GST protein. After the assay the total reaction was run on SDS PAGE gels and analyzed by Western blot analysis. Specific phosphorylation of RB was measured with rabbit polyclonal antibodies to RB phosphoserines 780 or 795 (New England Biolabs).

For the next experiment, the system named is 10T1/2 cells. Kind of experiment: BrdU incorporation growth arrest assay in transfected 10T1/2 cells. It is filed as cell-based, mouse. Conditions: for growth inhibitory activity (BrdU positive cells): 10T1/2 cells, 20% fetal calf serum, one hour BrdU pulse, domains with NLS in pCDNA3 or GST-pCEFL. As to the method: 10T1/2 cells in growth medium were cotransfected with plasmids expressing full-sized MyoD(CMD1) or the indicated domains, either as GST fusions in GST-pCEFL or as subclones in pCDNA3, along with a lacZ expression construct, pCH110, to mark transfected cells. The various domains were targeted to the nucleus with a nuclear tag in the absence of an existing NLS.
Cultures were maintained in 20% fetal calf serum. 72 hours after transfection cultures were refed with the same medium and 12 hours later they were given a one hour pulse with BrdU (10 μM) prior to fixation, as previously described by Crescenzi et al., PNAS USA 1990 87(21):8442–6; and Sorrentino et al., Nature, 1990 345(6278):813–5. Cells were then reacted with rabbit anti-BrdU antibody (Jackson labs) and Xgal.

The subject of the next experiment is C2C12 myoblasts. Nature of the experiment: RB phosphorylation and growth inhibition in cotransfected C2C12 myoblasts. It counts as cell-based, mouse. The text has this:
C2C12 myoblasts were cotransfected with a GST-pCEFL RB expression plasmid (RB aa 767–928) and pCDNA3 expression plasmids for full-sized or the C-terminus of MyoD(CMD1). GST-RB was recovered from the cells using methods known to those of skill in the art. The samples were adjusted for equal levels GST protein and loaded on SDS-PAGE gels for western analysis by phosphoserine 780 and 795-specific antibodies.

In experiment [1] the target is T2, CDK4 (Mus musculus, UniProt P30285).
T2 sequence (P30285 1-303): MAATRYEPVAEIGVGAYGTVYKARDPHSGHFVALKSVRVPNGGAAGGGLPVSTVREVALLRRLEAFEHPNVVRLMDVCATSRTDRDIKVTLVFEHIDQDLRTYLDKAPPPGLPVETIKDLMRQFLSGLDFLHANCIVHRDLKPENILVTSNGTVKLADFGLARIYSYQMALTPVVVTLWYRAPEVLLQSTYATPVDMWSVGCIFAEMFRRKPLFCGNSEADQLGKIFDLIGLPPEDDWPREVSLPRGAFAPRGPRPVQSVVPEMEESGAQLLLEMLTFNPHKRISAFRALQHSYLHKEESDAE
Kind of experiment: GST fusion pull-down binding assay with CDK4 from Sf9 cell extracts, anti-CDK4 immunoblot. The arrangement: made in house; host or cells: Sf9 insect cells, baculovirus. Conditions: GST fusion protein on glutathione agarose; CDK4 from baculovirus infected Sf9 cell extracts. The method, then: The Sf9 cell extract was incubated with agarasoe bound with either glutathione transferase (GST) alone, or GST fusion proteins encoding one of the four different vertebrate myogenic factors from chicken: CMD1 (MyoD), Ch-myogenin, Ch-myf5 an Ch-mrf4 using methods known to those of skill in the art. Any GST complexes formed were recovered on glutathione-Sepharose beads. The recovered GST complexes were then washed, heated in sample buffer and loaded on an SDS-PAGE gel.
The gel was then analyzed by immunoblot with anti-CDK4 affinity purified rabbit polyclonal antibody on HyBond ECL (Amersham). The anti-CKD4 antibody was diluted 1:2,000–5,000. The second antibody was HRP anti-rabbit and was diluted 1:10,000 (Pierce cat. no. 31460). The signal was detected using SuperSignal Ultra Reagent (Pierce cat. no. 34075).
Proteins were expressed in E. coli strain BL21 (DE3) and purified as described by Shirakata et al., Genes Dev. 1993 7(12A):2456–70. The MyoD-GST fusion proteins were bound to glutathione agaraose.
The binding experiments were performed with CDK4 produced in the baculovirus system (Kato et al., Genes Dev. 1993 7(3):331–42) essentially as described by Kaelin et al., Cell 1991 64(3):521–32.
Deletion mapping of the MyoD (CMD1) carboxy terminus narrowed the CDK4-binding region to a maximum of fifteen amino acids between residues 189–203, well outside the bHLH domain (FIG. 10b, lanes 4 and 5). To confirm that these fifteen amino acids bound CDK4, the fifteen amino acid peptide was joined to glutathione transferase and tested for its ability to bind the CDK4 from Sf9 cell extracts.

Experiment [2] deals with CDK4 target sites, serines 780 and 795 of RB. Kind of experiment: Phosphorylation of cotransfected GST-RB target in 10T1/2 cells, Western blot. To be noted: 48 hours after transfection, nuclear extracts. It is filed as cell-based, mouse. As to the method: The inhibitory activity of the fifteen amino acid CDK4 binding peptide on RB phosphorylation in cells was examined by fusing the fifteen amino acid CDK4-binding peptide of MyoD with a nuclear localization tag to the carboxy terminus of GFP and used in the same transfection protocol with GST-RB.
10T1/2 cells were cotransfected with a GST-RB target (amino acids 767–928) containing a nuclear localization tag, and either MyoD(CMD1) or the carboxy terminus of MyoD with an NLS.
48 hours after transfection, nuclear extracts of the 10T1/2 cells were prepared. The nuclear extracts were passed over glutathione agaraose to capture the GST-RB target.
Western blot analysis of the captured GST-RB target was performed with phosphoserine specific antibodies to the CDK4 target sites, serines 780 and 795. Gel loadings for the phosphoserine antibody analysis were adjusted to the same amount of GST-RB target protein by preliminary western analysis of the extracts (FIG. 13).

For experiment [3], the target named is T2, CDK4. Kind of experiment: Mammalian two-hybrid luciferase reporter assay with vp16-CDK4 in 10T1/2 fibroblasts. Conditions: average of three experiments. It counts as cell-based. From the text:
The interaction between MyoD and CDK4 in vivo was examined using a mammalian version of the yeast two hybrid system described by Finkel et al., (1993) J Biol Chem 268, 5–8.
MyoD and myogenin (MGN) were each cloned into the gal4 DNA-binding domain vector, pM. CDK4 was inserted into the vp16 activation domain plasmid, pVP16 using methods known to those of skill in the art.
10T1/2 fibroblasts (3×10^5 cells per 60 mm dish or multiwell plate) grown in DMEM with either 10% fetal calf serum were co-transfected with either gal4-MyoD or gal4-MGN along with vp16-CDK4 and a luciferase reporter using Fugene-6 (Boehringer-Mannheim) according to the manufacturer's directions. 1 μg gal4 luciferase reporter, 2 μg each of the gal4 (pM vector, Clonetech) and vp16 (pvp16 vector, Clonetech) constructs, and 300 ng of the beta galactosidase reporter pCH110 (Pharmacia), a total of 5.3 μg DNA, were used in each transfection. The pSV2-beta galactosidase reporter was used to normalize transfection efficiencies.
After 24–36 hours, if required, cells were placed in 2% horse serum plus insulin (10 μg/ml) to induce differentiation and destabilize cyclin D1. […]
24–48 hours after transfection, the luciferase reporter assay was performed according to the manufacturer's directions (Promega, cat. no. E4030) and measured in a Victor 1420 Multilabel Counter. […]

T1 sequence (P25322 whole entry partner, one chain of several): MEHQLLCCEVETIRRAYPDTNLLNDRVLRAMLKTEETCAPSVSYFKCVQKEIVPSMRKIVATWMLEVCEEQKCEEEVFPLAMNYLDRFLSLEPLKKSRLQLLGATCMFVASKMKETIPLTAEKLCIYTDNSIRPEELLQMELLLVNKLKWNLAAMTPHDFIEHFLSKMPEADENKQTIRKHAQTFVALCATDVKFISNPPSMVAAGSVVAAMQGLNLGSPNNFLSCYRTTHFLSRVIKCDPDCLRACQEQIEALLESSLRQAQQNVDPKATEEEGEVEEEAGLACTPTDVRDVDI

As for “fifteen amino acid CDK4-binding peptide: amino acids 189–203 of chicken MyoD (CMD1), SEQ ID NO: 1; tested as GST fusion, with NLS in cells”, in the experiment with CDK4 and cyclin D1, the “inhibition of CDK4-dependent phosphorylation of RB (GST-RB) in vitro” value (“inhibition” for short) is reported as “inhibit”. In addition, the “growth inhibitory activity (BrdU positive cells)” value (from here on “growth inhibitory activity”) in the experiment with 10T1/2 cells was “as potent as full-sized MyoD(CMD1) in growth inhibitory activity”. Also, the “growth inhibitory effect when the peptide further includes nuclear localization signal (NLS)” value with 10T1/2 cells (data not shown) was “enhanced”. Besides, the “CDK4 kinase activity and cell growth when expressed in cell nuclei” value in the experiment on C2C12 myoblasts is “inhibits CDK4 kinase activity and cell growth”. Further, the “binding to CDK4” value with CDK4 [1] is recorded as “bound CDK4 as efficiently as full-sized MyoD (CMD1)”.

B1: C-terminus of MyoD(CMD1): amino acids 153–298 of CMD1 (protein, UniProt P16075 153-298, looked up, fragment)
chain: ALLREQEDAYYPVLEHYSGESDASSPRSNCSDGMMEYSGPPCSSRRRNSYDSSYYTESPNDPKHGKSSVVSSLDCLSSIVERISTDNSTCPILPPAEAVAEGSPCSPQEGGNLSDSGAQIPSPTNCTPLPQESSSSSSSNPIYQVL
For B1, in the experiment with CDK4 and cyclin D1, the “inhibition” value was “inhibit”. In addition, the “phosphorylation of serines 780 and 795 on cotransfected RB target protein” value in experiment [2] was “reduced the phosphorylation of serines 780 and 795”. In addition, in the experiment with CDK4 [1], the “binding to CDK4” value is given as “CDK4 bound”.

B2: full-length MyoD(CMD1): full-sized chicken MyoD (CMD1), muscle specific bHLH transcription factor; used as GST, his-tag or gal4 constructs (protein, UniProt P16075 1-298, looked up)
chain: MDLLGPMEMTEGSLCSFTAADDFYDDPCFNTSDMHFFEDLDPRLVHVGGLLKPEEHPHTRAPPREPTEEEHVRAPSGHHQAGRCLLWACKACKRKTTNADRRKAATMRERRRLSKVNEAFETLKRCTSTNPNQRLPKVEILRNAIRYIESLQALLREQEDAYYPVLEHYSGESDASSPRSNCSDGMMEYSGPPCSSRRRNSYDSSYYTESPNDPKHGKSSVVSSLDCLSSIVERISTDNSTCPILPPAEAVAEGSPCSPQEGGNLSDSGAQIPSPTNCTPLPQESSSSSSSNPIYQVL
modifications: full-length GST, His or gal4 tagged
notes: full-sized chicken MyoD (CMD1), muscle specific bHLH transcription factor; used as GST, his-tag or gal4 constructs
With B2, the “inhibition” value in the experiment with CDK4 and cyclin D1 is “inhibit”. For the same molecule, the “phosphorylation of serines 780 and 795 on cotransfected RB target protein” value in experiment [2] was “reduced the phosphorylation of serines 780 and 795”. Also, the “growth inhibitory activity” value in the experiment with 10T1/2 cells was “showed growth inhibitory activity”. The “binding to CDK4” value with CDK4 [1] was “binds specifically”. Besides, the “vp16 CDK4-dependent luciferase reporter activity” value with CDK4 [3] is given as “four-fold increase”.

B3: N-terminus (amino acids 1–92): amino acids 1–92 of CMD1 (protein, UniProt P16075 1-92, looked up, fragment)
chain: MDLLGPMEMTEGSLCSFTAADDFYDDPCFNTSDMHFFEDLDPRLVHVGGLLKPEEHPHTRAPPREPTEEEHVRAPSGHHQAGRCLLWACKAC
As to B3, the “inhibition” value with CDK4 and cyclin D1 is listed as “neither the N-terminus (amino acids 1–92) nor the bHLH domain of MyoD(CMD1) inhibited CDK4 activity”. Also, in the experiment with 10T1/2 cells, the “growth inhibitory activity” value is recorded as “ineffective in growth inhibition”.

B4: bHLH domain of MyoD(CMD1): amino acids 93–153 of CMD1 (protein, UniProt P16075 93-153, looked up, fragment)
chain: KRKTTNADRRKAATMRERRRLSKVNEAFETLKRCTSTNPNQRLPKVEILRNAIRYIESLQA
B4: the “inhibition” value in the experiment with CDK4 and cyclin D1 is “neither the N-terminus (amino acids 1–92) nor the bHLH domain of MyoD(CMD1) inhibited CDK4 activity”. Further, in the experiment on 10T1/2 cells, the “growth inhibitory activity” value was “effective at inhibiting cell growth”.

B5: Myogenin: chicken myogenic factor that does not bind CDK4, used as the control (protein, UniProt P17920 1-227, looked up)
Myogenin: MELFETNPYFFPEQRFYDGENFLGSRLQGYEAAAFPERPEVTLCPESRGALEEKDSTLPEHCPGQCLPWACKICKRKTVSIDRRRAATLREKRRLKKVNEAFEALKRSTLLNPNQRLPKVEILRSAIQYIERLQSLLSSLNQQEREQRELRYRPAAPQPAAPSECGSGSSSCSPEWSTQLEFGTNPADHLLSDDQAEDRNLHSLSSIVESIAVEDVAVTFPEERVQN
modifications: gal4 fusion
Regarding B5, in the experiment with CDK4 and cyclin D1, the “inhibition” value is “no inhibitory effect”. Further, the “binding to CDK4” value in the experiment with CDK4 [1] is reported as “does not bind to CDK4”.
